One substance from article PMC8121779 can be followed below.

For this assay, the target named is LMW-E-T1 (low molecular weight form of cyclin E, T1), MMTV transgene in mouse salivary gland tumors.

In turn, “CDK1 (endogenous in mouse salivary gland tumors) (from UniProt P11440 1-297) (enzyme)” registered a decrease of cyclin E-associated histone H1 kinase activity after 3 rounds of immunodepletion of CDK1 (90%), CDK2+/+ tumor lysate (sample 3085) of 7% and a decrease of cyclin E-associated histone H1 kinase activity after 3 rounds of immunodepletion of CDK1 (90%), CDK2-/- tumor lysate (sample 4111) of 14%.
